In general, stoichiometry N refers to a count of units in the complex or per binding partner.

In paper PMC2761383, “Structural and functional characteristics of xenavidin, the first frog avidin from Xenopus tropicalis” (BMC Structural Biology, 2009) one finds stoichiometry N data, which are given here for 2 substances.

The target in assay [1] is xenavidin (Xenopus tropicalis). Nature of the assay: SEC; Superdex 200 10/300 GL, 50 mM sodium phosphate pH 7.0, 650 mM NaCl; samples with and without an excess of biotin. (In general: Size exclusion chromatography separates by hydrodynamic size, large species first.)
For assay [2], the target named is xenavidin (Xenopus tropicalis). In words: crystal structure; sitting-drop vapour diffusion at 22°C, with and without D-biotin; space group R32, dimer in the asymmetric unit; 1.7 Å.
Assay [3] addresses xenavidin, acetylated in vitro (Xenopus tropicalis). In words: SDS-PAGE thermostability assay; acetylated protein saturated with biotin, thermal treatment for 20 min in the presence of SDS and 2-mercaptoethanol, SDS-PAGE with Coomassie staining.

In the case of xenavidin (natural protein), the stoichiometry N in assay [1] and in assay [2] was 4 throughout.

On to “xenavidin, acetylated in vitro (natural protein)”, for which, in assay [3], the stoichiometry N was found to be 4.
